# Source: the supplement of paper PMC10724198
# Columns and labels:
# [1] = tested on: Saccharomyces cerevisiae; test: protein stability index of tFT-peptide fusion in wild type (PSI (0-1 scale)); higher = more stable (slower turnover); settings: genetic background: wild type
# Experimental: (§1)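 MPS profiling in S. cerevisiae of two library types built from selected 12-aa C-degron peptides (IN1, IN2, LN1, LN3, VN2, R1-R5, W1-W3, Atg1 and Rpa12 C-termini): saturation mutagenesis libraries and C-terminal +1 capping libraries (13 aa). Each peptide is fused to the C-terminus of a sfGFP-mCherry timer, after a GGGS linker. Cells are FACS-sorted into 8 mCherry/sfGFP bins and sequenced. PSI runs from 0 (unstable) to 1 (stable), measured once in wild type and in the das1Δ or doa10Δ background.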
# [2] = tested on: Saccharomyces cerevisiae; test: protein stability index of tFT-peptide fusion in deletion strain of DAS1 (PSI (0-1 scale)); higher = more stable (slower turnover)
# Experimental: as §1
# 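Wherever protein stability index of tFT-peptide fusion in deletion strain of DAS1 is given: PSI is a weighted mean of each variant's read distribution over the sorted stability bins, computed only for variants having over 10 reads in total.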
# 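Wherever protein stability index of tFT-peptide fusion in wild type is given: PSI derived as read-weighted mean over the 8 sorting bins, only variants exceeding 10 total reads kept, mCherry placed adjacent to the peptide and sfGFP distal.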
Sequence,protein stability index [1],protein stability index [2]
ARLRVGLWRGAS,0.581,0.69
FSMRWTFRYWRN,0.653,0.531
CTSCGYKFITNN,0.325,0.709
ARWRVGLWRGAR,0.663,0.666
CTSCTYKFRTNN,0.238,0.648
RLIQPLPVQFLND,0.652,0.671
RIIQPLPVQFLN,0.0603,0.598
FSNRWTFRYWVN,0.0838,0.617
LVYYLSCVACIN,0.0126,0.0331
ASWRVGLWRGAS,0.516,0.703
YKILRQKMNHQN,0.196,0.668
VRGAVGGWRHVG,0.137,0.691
FSMRVTFRYWVN,0.0315,0.352
LKILRQKDNHQN,0.664,0.666
PDKRNHLIVLLN,0.148,0.637
SDKRNHLIKLLN,0.156,0.607
PSLAAGFWRVVG,0.164,0.678
PSLAASFWRVVGR,0.692,0.691
PALAASFWRVVG,0.178,0.687
LKILRQWMNHQN,0.184,0.693
VRGAVGGWRLTG,0.269,0.659
LKILRQLMNHQN,0.219,0.665
FSMWWTFRYWVN,0.077,0.444
PDKRNHIIKLLN,0.132,0.57
PDKRNHLEKLLN,0.292,0.63
CTSCGYKFRTRN,0.534,0.683
FSMRWTFRYWVNN,0.137,0.558
FSMRWTFRYWVY,0.0725,0.374
PSLAAAFWRVVG,0.142,0.702
PDKRNHLRKLLN,0.205,0.574
